Source: publication PMC10457294
Several values for one entry are separate records, joined by “and”; a condition that tells them apart may be missing. Equal values may be shown once.

Columns and labels:
[1] = target: human B7.1 ectodomain fused to human Fc (human) (UniProt P33681); experiment: BLI; […] (10 ug/mL) […]; 10 mM HEPES pH 7.4, 150 mM NaCl, 3 mM EDTA, 0.05% Tween, 1% BSA; 25 °C; 1:1 model; […]
[2] = target: human B7.2 ectodomain fused to human Fc (human) (UniProt P42081); experiment: as above
[3] = target: MPXV M2 (monkeypox virus M2 protein), His-tagged, wild type (monkeypox virus (Clade I)) (UniProt Q8V554); experiment: SEC-MALS
[4] = target: human B7.2 ectodomain, His-tagged (human) (UniProt P42081); experiment: cryo-EM structure
[5] = target: MPXV M2 (monkeypox virus M2 protein), His-tagged, wild type (monkeypox virus (Clade I)) (UniProt Q8V554); experiment: cryo-EM structure
[6] = target: human B7.1 ectodomain, His-tagged (human) (UniProt P33681); experiment: cryo-EM structure
Sequence of human B7.1 ectodomain, His-tagged (human) (P33681 35-234): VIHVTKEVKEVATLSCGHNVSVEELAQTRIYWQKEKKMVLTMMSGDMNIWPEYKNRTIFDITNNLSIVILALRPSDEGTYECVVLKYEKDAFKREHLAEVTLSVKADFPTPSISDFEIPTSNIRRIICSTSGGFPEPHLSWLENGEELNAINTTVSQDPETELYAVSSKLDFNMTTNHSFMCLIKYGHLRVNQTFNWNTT

Sequence of human B7.1 ectodomain fused to human Fc (human) (P33681 35-234): as above
Sequence of human B7.2 ectodomain fused to human Fc (human) (P42081 26-238): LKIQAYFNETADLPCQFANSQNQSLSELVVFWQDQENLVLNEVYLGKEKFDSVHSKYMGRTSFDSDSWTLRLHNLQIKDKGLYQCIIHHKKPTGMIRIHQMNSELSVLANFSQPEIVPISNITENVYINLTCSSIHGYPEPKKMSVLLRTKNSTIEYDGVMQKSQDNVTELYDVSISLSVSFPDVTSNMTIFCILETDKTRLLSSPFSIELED
Sequence of human B7.2 ectodomain, His-tagged (human) (P42081 26-238): as above

## MPXV M2 (monkeypox virus M2 protein), His-tagged, wild type (from UniProt Q8V554 18-220) (natural protein)
[1]
  t1/2 (dissociation half-life time): 6.62 h
[2]
  t1/2 (dissociation half-life time): 19.7 h
[3]
  stoichiometry N: 6.12
[4]
  stoichiometry N: 1
[5]
  stoichiometry N: 6 and 7
[6]
  stoichiometry N: 1
